Assay [1] addresses T1, extracellular domain of CD47 fused to a His(×6)-Avi-tag (human). The assay can be described thus: ELISA; pH 6.6. (In an ELISA, binding on a coated surface is turned into a signal by an enzyme label.)
The target of assay [2] is T1, extracellular domain of CD47 fused to a …. In words: ELISA; pH 6.2.
Assay [3] shares this target. The assay can be described thus: ELISA; pH 7.6.
Assay [4] concerns the target T2, cell-surface CD47 on Raji, Jurkat and MDA-231 tumor cells (human (endogenous in Raji, Jurkat, …, UniProt Q08722 19-323)). In words: FACS; Raji, pH 7.4. A general note: A flow cytometer gives signals particle by particle.
The target in assay [5] is T2, cell-surface CD47 on Raji, Jurkat and …. The assay can be described thus: FACS; Raji, pH 7.4, competition with bio-SIRPα-Fc.
Assay [6] concerns the target T1, extracellular domain of CD47 fused to a …. In words: ELISA; pH 6.4.
The target of assay [7] is T3, full-length human CD47 stably expressed on CHO cells (CHO-hCD47) (human, UniProt Q08722 19-323). The assay can be described thus: FACS; pH 7.4, competition with bio-SIRPα-Fc.
For assay [8], the target named is T1, extracellular domain of CD47 fused to a …. In words: SPR; pH 6.8. A general note: Surface plasmon resonance follows binding to a sensor surface in real time, without labels.
Assay [9] has as its target T2, cell-surface CD47 on Raji, Jurkat and …. The assay can be described thus: FACS; Jurkat, pH 6.8.
Assay [10] has the same target. In words: FACS; MDA-231, pH 7.4, competition with bio-SIRPα-Fc.
Assay [11] has the same target. In words: FACS; Raji, pH 6.8.
The target in assay [12] is T3, full-length human CD47 stably expressed …. In words: FACS; pH 7.4.
Assay [13] has as its target T2, cell-surface CD47 on Raji, Jurkat and …. The assay can be described thus: FACS; Jurkat, pH 6.8, competition with bio-SIRPα-Fc.
The target of assay [14] is T3, full-length human CD47 stably expressed …. In words: FACS; pH 6.8.
For assay [15], the target named is T1, extracellular domain of CD47 fused to a …. The assay can be described thus: SPR; pH 7.4.
For assay [16] the target is unchanged. In words: ELISA; pH 7.0.
In assay [17] the target is T3, full-length human CD47 stably expressed …. In words: FACS; pH 6.8, competition with bio-SIRPα-Fc.
In assay [18] the target is T2, cell-surface CD47 on Raji, Jurkat and …. The assay can be described thus: FACS; Raji, pH 6.8, competition with bio-SIRPα-Fc.
Assay [19] has the same target. In words: FACS; Jurkat, pH 7.4.
For assay [20], the target named is T1, extracellular domain of CD47 fused to a …. In words: ELISA; pH 6.8.
Assay [21] has as its target T2, cell-surface CD47 on Raji, Jurkat and …. The assay can be described thus: FACS; MDA-231, pH 6.8.
The target is the same in assay [22]. The assay can be described thus: FACS; MDA-231, pH 7.4.
The target is the same in assay [23]. The assay can be described thus: FACS; MDA-231, pH 6.8, competition with bio-SIRPα-Fc.
Assay [24] shares this target. The assay can be described thus: FACS; Jurkat, pH 7.4, competition with bio-SIRPα-Fc.
The target of assay [25] is T1, extracellular domain of CD47 fused to a …. In words: ELISA; pH 7.4.
Assay [26] shares this target. In words: ELISA; pH 7.2.

Consider three molecules from article PMC9844003 (2023).

Substitutions are numbered along the chain they refer to.

A word on the EC50: it is the concentration needed to bring the measured effect to its halfway point. The IC50 is the concentration that gives 50% inhibition. A higher IC50 goes with lower potency. The Kd is the equilibrium constant for the complex coming apart. A lower Kd goes with tighter binding.

T2 sequence (Q08722 19-323): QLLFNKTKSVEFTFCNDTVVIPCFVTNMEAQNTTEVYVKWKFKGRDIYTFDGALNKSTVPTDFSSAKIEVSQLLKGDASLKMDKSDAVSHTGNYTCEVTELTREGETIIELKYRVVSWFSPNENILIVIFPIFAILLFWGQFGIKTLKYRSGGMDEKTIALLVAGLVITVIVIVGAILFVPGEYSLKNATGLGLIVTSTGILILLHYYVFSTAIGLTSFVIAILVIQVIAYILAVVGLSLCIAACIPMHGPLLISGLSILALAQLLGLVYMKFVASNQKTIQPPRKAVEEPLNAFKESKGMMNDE
T3 sequence (Q08722 19-323): as above
T1 sequence (chain, as listed by the source): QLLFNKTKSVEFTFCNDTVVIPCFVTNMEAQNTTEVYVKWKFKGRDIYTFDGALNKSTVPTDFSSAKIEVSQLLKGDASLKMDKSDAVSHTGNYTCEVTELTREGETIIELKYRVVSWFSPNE

B1: BC31M5 (hIgG1 form) (antibody, V domains shown)
VH: QVQLVQSGAEVKKPGASVKVSCKASGYTFTSYGISWVRQAPGQGLEWMGWISAYNGNTNYAQKLQGRVTMTTDTSTSTAYMELRSLRSDDTAVYYCARGTVYFDYWGQGTLVTVSS
VL: EIVLTQSPATLSLSPGERATLSCRASQSLSRNHLAWYQQKPGQPPRLLIHWASTRESGVPDRFSGSGSGTDFTLTISSLQAEDVAVYYCQQHTQNTWTFGQGTKVEIK
On to B1, for which the 50% effective concentration (EC50) in assay [1] was 0.05 nM; in [2], 0.06 nM; in assay [3], 0.06 nM; in assay [4], 4 nM; in assay [6] it was 0.05 nM; in assay [9], 1.5 nM. Also, the EC50 is 0.7 nM in assay [11]; 4.1 nM in [12]; 4.8 nM in assay [14]; 0.04 nM in assay [16]; 2 nM in [19]; 0.04 nM in assay [20]. The half-maximal effective concentration (EC50) in [21] was 1.2 nM; in assay [22] it was 3.3 nM; in assay [25], 0.04 nM; in assay [26], 0.04 nM. For the same molecule, the half-maximal inhibitory concentration (IC50) amounted to 6.7 nM in assay [5]; 5.9 nM in assay [7]; 9.3 nM in assay [10]; 4.2 nM in assay [13]; 4.1 nM in [17]; 1.2 nM in assay [18]. The concentration for half-maximal inhibition (IC50) in assay [23] stood at 1.7 nM; in assay [24], 17.2 nM. Also, the Kd in assay [8] came out at 3.6 nM; in assay [15] it was 6.9 nM.

B2: BC27 (hIgG1 form) (antibody, V domains shown)
VH: B1 VH with T100K
VL: B1 VL with H92Y, T93Y, Q94T, N95A, T96S
With B2, the Kd in assay [15] turned out to be 1170 nM.

B3: BC31M4 (hIgG1 form) (antibody, V domains shown)
VH: B1 VH with T100A
VL: B1 VL
B3: the EC50 in assay [4] is around 92 nM; in assay [9] it was 1.54 nM; in assay [11], 6.8 nM; in [12], around 21.4 nM; in assay [14], 4.8 nM; in assay [16], 0.04 nM. In addition, the EC50 in assay [19] was around 131 nM; in assay [21], 8.5 nM; in assay [22], around 231 nM; in [25] it was 0.51 nM; in [26], 0.11 nM. The half-inhibitory concentration (IC50) in assay [7] was around 30.4 nM; in assay [10], around 507 nM; in assay [13] it was 35 nM; in assay [17], 5.4 nM; in assay [18], 19.9 nM; in [23], 22.7 nM. The molecule further showed a Kd in [15] of 457 nM.
